In paper doi:10.1101/2022.02.28.482286 (bioRxiv, 2022):

T1: Pol III subunit C128 (S. cerevisiae, UniProt P22276 1-1149)
T1 sequence (looked up): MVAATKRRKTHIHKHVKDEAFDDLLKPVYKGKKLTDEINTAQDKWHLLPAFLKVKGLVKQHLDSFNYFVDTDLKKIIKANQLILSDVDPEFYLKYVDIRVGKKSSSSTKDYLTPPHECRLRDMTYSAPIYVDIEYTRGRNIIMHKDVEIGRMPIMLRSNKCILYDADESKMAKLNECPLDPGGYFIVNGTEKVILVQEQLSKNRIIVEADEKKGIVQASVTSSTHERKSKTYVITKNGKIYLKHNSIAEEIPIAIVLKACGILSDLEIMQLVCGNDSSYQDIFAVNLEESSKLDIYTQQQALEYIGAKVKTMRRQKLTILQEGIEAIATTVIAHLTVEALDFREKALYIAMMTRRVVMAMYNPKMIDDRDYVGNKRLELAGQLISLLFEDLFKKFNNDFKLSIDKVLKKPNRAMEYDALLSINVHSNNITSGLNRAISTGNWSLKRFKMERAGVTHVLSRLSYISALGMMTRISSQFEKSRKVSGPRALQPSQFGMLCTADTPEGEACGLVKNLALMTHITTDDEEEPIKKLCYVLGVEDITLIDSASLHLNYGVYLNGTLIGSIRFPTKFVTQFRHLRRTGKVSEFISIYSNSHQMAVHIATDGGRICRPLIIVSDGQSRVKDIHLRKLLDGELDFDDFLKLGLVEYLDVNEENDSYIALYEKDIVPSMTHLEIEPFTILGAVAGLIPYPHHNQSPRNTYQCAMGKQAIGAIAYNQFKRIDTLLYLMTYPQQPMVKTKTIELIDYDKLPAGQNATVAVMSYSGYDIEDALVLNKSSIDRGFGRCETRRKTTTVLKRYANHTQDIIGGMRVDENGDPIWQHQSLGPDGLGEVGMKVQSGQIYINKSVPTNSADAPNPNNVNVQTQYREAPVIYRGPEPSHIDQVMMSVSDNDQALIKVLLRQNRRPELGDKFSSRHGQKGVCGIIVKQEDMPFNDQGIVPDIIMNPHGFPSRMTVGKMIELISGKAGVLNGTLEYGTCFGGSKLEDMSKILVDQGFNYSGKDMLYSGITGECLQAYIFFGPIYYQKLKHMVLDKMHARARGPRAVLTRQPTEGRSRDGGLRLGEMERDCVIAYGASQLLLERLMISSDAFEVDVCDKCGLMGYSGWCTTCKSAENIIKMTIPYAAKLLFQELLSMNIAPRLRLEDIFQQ

T2: Pol III subunit C53 (S. cerevisiae, UniProt P25441 1-422)
T2 sequence (looked up): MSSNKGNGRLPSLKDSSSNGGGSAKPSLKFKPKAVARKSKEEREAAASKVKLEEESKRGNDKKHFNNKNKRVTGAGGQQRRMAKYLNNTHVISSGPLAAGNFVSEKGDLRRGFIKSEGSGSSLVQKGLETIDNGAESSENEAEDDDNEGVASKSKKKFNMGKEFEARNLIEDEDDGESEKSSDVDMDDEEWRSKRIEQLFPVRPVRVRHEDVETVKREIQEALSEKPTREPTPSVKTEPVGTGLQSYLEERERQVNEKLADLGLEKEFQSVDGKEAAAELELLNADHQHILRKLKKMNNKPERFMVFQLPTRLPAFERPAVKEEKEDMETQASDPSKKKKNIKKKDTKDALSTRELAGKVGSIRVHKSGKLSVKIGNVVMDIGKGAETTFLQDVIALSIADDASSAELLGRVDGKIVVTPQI

T3: Pol III subunit C160 (S. cerevisiae, UniProt P04051 1-1460)
T3 sequence (looked up): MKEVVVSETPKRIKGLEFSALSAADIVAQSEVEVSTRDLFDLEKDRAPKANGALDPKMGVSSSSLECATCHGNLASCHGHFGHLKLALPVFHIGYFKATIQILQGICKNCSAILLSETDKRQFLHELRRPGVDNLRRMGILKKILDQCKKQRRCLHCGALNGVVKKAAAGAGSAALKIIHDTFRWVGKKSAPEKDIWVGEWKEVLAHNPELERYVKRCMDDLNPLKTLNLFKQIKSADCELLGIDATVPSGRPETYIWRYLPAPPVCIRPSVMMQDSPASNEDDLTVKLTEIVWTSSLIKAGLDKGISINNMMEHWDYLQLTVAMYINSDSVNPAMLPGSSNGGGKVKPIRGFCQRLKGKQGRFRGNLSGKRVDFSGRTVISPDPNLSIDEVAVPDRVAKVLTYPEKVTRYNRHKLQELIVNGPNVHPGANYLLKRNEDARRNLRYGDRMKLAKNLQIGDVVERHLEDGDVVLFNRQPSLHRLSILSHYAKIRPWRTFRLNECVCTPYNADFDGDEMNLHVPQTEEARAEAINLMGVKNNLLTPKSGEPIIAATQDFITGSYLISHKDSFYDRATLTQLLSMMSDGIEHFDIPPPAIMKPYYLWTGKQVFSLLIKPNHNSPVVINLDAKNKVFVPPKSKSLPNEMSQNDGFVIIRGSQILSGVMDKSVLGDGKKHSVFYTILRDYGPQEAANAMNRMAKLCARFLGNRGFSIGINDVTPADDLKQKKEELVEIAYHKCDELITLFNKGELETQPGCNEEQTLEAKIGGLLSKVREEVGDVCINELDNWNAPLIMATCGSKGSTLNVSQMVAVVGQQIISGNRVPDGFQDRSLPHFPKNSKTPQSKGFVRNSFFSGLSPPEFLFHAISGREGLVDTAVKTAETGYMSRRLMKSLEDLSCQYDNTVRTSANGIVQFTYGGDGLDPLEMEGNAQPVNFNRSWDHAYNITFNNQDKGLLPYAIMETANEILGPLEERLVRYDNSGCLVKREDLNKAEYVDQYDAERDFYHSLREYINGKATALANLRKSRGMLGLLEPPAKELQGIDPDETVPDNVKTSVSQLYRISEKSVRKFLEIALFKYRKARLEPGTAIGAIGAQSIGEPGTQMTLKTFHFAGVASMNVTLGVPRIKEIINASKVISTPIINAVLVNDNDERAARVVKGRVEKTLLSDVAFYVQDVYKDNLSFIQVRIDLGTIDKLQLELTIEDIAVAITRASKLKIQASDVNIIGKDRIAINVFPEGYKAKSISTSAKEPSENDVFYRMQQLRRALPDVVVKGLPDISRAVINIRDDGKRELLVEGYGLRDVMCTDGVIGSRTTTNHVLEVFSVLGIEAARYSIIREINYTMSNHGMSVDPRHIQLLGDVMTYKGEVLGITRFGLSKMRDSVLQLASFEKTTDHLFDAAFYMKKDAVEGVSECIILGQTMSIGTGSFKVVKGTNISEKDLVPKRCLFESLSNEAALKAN

T4: subunit ABC27 (S. cerevisiae, UniProt P20434 1-215)
T4 sequence (looked up): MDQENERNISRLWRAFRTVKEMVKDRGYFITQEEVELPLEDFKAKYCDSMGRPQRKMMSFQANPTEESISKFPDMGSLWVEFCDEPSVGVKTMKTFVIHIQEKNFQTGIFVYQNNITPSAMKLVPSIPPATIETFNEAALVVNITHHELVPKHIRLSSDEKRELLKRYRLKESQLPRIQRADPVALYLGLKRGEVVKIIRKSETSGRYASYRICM

B1: C53-C37 heterodimer (complex, S. cerevisiae)
chain 1: T2 sequence (looked up)
chain 2: MSIDNKLFVTEEDEEDRTQDRADVEDESNDIDMIADENGTNSAIANEQEEKSEEVKAEDDTGEEEEDDPVIEEFPLKISGEEESLHVFQYANRPRLVGRKPAEHPFISAARYKPKSHLWEIDIPLDEQAFYNKDKAESEWNGVNVQTLKGVGVENNGQYAAFVKDMQVYLVPIERVAQLKPFFKYIDDANVTRKQEDARRNPNPSSQRAQVVTMSVKSVNDPSQNRLTGSLLAHKVADEEANIELTWAEGTFEQFKDTIVKEAEDKTLVALEKQEDYIDNLV
B2: Pol III subunit C37 (natural protein, S. cerevisiae, UniProt P36121 1-282, looked up)
chain: B1 chain 2
B3: Pol III subunit C11 (natural protein, S. cerevisiae, UniProt Q04307 1-110, looked up)
chain: MLSFCPSCNNMLLITSGDSGVYTLACRSCPYEFPIEGIEIYDRKKLPRKEVDDVLGGGWDNVDQTKTQCPNYDTCGGESAYFFQLQIRSADEPMTTFYKCVNCGHRWKEN

Columns and labels:
Experiment in all cases: cryo-EM structure
[1] = target: T1, Pol III subunit C128
[2] = target: T2, Pol III subunit C53
[3] = target: T3, Pol III subunit C160
[4] = target: T4, subunit ABC27

Binder | binding result [1] | binding result [2] | binding result [3] | binding result [4]
B1 | binds |  |  | 
B2 | binds | binds |  | 
B3 |  |  | binds | binds
